# In article doi:10.1101/2025.11.07.687288:
# Where two headings read alike, the source gives them in different places.
# Assays:
# [1] = target: E-cadherin V81D L175D, as the Dimerization Activated TurboID pair (Δ-DAT: ΔEcadN and ΔEcadC); assay: split reporter
# [2] = target: E-cadherin V81D L175D, as the Dimerization Activated TurboID pair (Δ-DAT: ΔEcadN and ΔEcadC); assay: split reporter; remark: listed apart in the source
substance,measurement,setting,value
"E-cadherin V81D L175D, as the Dimerization Activated TurboID pair (Δ-DAT: ΔEcadN and ΔEcadC) (receptor)","biotinylation relative to WT-DAT, normalized for expression",[1],38.7%
same,"biotinylation relative to WT-DAT, normalized for expression",[2],59%
